Measurements reported in the DeepSol protein solubility set.

Assay: soluble on expression in E. coli; label from the status in PepcDB or PDB records

Sequence	soluble on expression in E. coli
MMKKRASHHLVICTLIDTLRFRLSSRKAISMNAFNKLVKHSKKISNFNHLSSIVGWDQAAVMPSGGAEARSQAMAELSVHIHGLMTQPQLADWFAEAESETLNIEQQATLREMKRQWQQATVLPEALVEAQSLAGSKCEHAWRSQRKNNDWTGFEKNWAEVVKLSQEEAQIRAEATGKTPYDAMLELYEPGTTTEQLNRVFSDVKTWLPSLIDVVIEKQSSESFIAPKGHYPAESQKALGLDVMKLLQFDFNHGRLDESVHPFCGGVPSDVRITTRYNESEFVQSLMGIVHETGHARYEQGLPKHLAGTPAGEARSMGIHESQSLFFEMQVGRSPAFIAHLAELAGKHFSAMNDPVFRVENIQKLYTRVQKDFIRVDADELTYPAHVILRFEIERDLMNGKIKHTDVPELWDQKMQAYLGLSTKGNDQNGCMQDIHWTDGSFGYFPSYTLGAMYAAQFMAAMKKTVDVDGAIRRGDLSPIFTWLSENIWSKGSLFSTDELVKQATGETLNPEHFKAHLSQRYLK	not soluble
MGKTLYEKVYDAHVAVAAEGETPILYIDRHLVHEVTSPQAFDGLREKGRKVRQVSKTFATMDHNVSTTTKDINASGEMARIQMETLSKNCEEFGVTLYDLNHKYQGIVHVMGPELGITLPGMTIVCGDSHTATHGAFGSLAFGIGTSEVEHVLATQTLKQARAKT	not soluble
MNSIKNVPARVLSRRPGHSLEAEREQFDKTQAISISKAINTQEAPVKEKHARRIILGTHHEKGAFTFWSYAIGLPLPSSSILSWKFCHVLHKVLRDGHPNVLHDCQRYRSNIREIGDLWGHLHDRYGQLVNVYTKLLLTKISFHLKHPQFPAGLEVTDEVLEKAAGTDVNNIFQLTVEMFDYMDCELKLSESVFRQLNTAIAVSQMSSGQCRLAPLIQVIQDCSHLYHYTVKLLFKLHSCLPADTLQGHRDRFHEQFHSLRNFFRRASDMLYFKRLIQIPRLPEGPPNFLRASALAEHIKPVVVIPEEAPEDEEPENLIEISTGPPAGEPVVVADLFDQTFGPPNGSVKDDRDLQIESLKREVEMLRSELEKIKLEAQRYIAQLKSQVNALEGELEEQRKQKQKALVDNEQLRHELAQLRAAQLEGERSQGLREEAERKASATEARYNKLKEKHSELVHVHAELLRKNADTAKQLTVTQQSQEEVARVKEQLAFQVEQVKRESELKLEEKSDQLEKLKRELEAKAGELARAQEALSHTEQSKSELSSRLDTLSAEKDALSGAVRQREADLLAAQSLVRETEAALSREQQRSSQEQGELQGRLAERESQEQGLRQRLLDEQFAVLRGAAAEAAGILQDAVSKLDDPLHLRCTSSPDYLVSRAQEALDAVSTLEEGHAQYLTSLADASALVAALTRFSHLAADTIINGGATSHLAPTDPADRLIDTCRECGARALELMGQLQDQQALRHMQASLVRTPLQGILQLGQELKPKSLDVRQEELGAVVDKEMAATSAAIEDAVRRIEDMMNQARHASSGVKLEVNERILNSCTDLMKAIRLLVTTSTSLQKEIVESGRGAATQQEFYAKNSRWTEGLISASKAVGWGATQLVEAADKVVLHTGKYEELIVCSHEIAASTAQLVAASKVKANKHSPHLSRLQECSRTVNERAANVVASTKSGQEQIEDRDTMDFSGLSLIKLKKQEMETQVRVLELEKTLEAERMRLGELRKQHYVLAGASGSPGEEVAIRPSTAPRSVTTKKPPLAQKPSVAPRQDHQLDKKDGIYPAQLVNY	soluble
MGSDKIHHHHHHMRTDNKLSGIIAKKHSFSVPLDYQQSPSEQINLFVRELSSVEHQNKELPYLVFFQGGPGFGAVRPVANTGWIKRALTQYRVLLLDQRGTGLSTPVSAESLAHLTSQQQAEYLSHFRSDNIIRDAELIRAKLSPDRPWSILGQSFGGFCVLRYLSAAPQGLKAAYITGGIPSLERSADEVYQATYQRVLAKNQDFFSRFSDARELANRLASHISEYEVLLSSGERLTVEMLQLLGINLGMEQGPEGVYYLLEQALIDTAQGVKVNPLFLHQFGQFLDYNTNPLFAVLHESIYCQNSASNWAAHRVREQYSQFNYHLGKDLLFTGEMVYPWMFDQFSQLQPLKEAAELLAAKSDWPALYDLEQLKANTVPVSAAIYSEDMFVEMQYSLETTKDVGSLKYWLTSEYEHNGIRMDGERVLDKLIALNTGRELR	not soluble
MQSIGQVLTKASERLEERLAAVLAQYTPAYFRERIPELNELDATDEMIQKAIIQLMDRAKQIEECRGCTGFANCRRPPGQEGMVMHLTVENGHISSLHSMCDQFHAYHQEQRWQRLLALSGKAANDKNFTFDNFPDAQKKRHRKLCGYIYQFAQQFEPGGSDKGVYIYGPPGTGKTHLLLAMVNRLEERRVPVIFIRTDAIFRRMRGMLSAKESLDSLIEAYCTTPVLVIDEFAQEAGTEFTIDVMFEVVNARFANSLPTFATSNYAPDQVYEKAMRKHRLEEKVEAIRSRLNQMMKHAFMDGEDGRKKDRETF	not soluble
MAHHHHHHMVVSTGEFDHPPFQFRQRHTFNTTPLHDANRFGGRTAYLREIGPVNIKKQGRRFKKDPRTVQFNVDVWCAQQTLRKRWKQRDWEVIEIPFRLVPREQQRVIPELYTDIPQMTDPARNDFSNIRNKVYDREELQGVLFPAAGTMLYPPLQRVDKQAMTLDKYL	not soluble
MAHHHHHHMSDHEMYDNIDAGASQTYPVQAGAIKKNGHVMLKEHPCKVVDYSTSKTGKHGHAKAHIVGIDIFTGRKYEDICPTSHNMDVPVVKRTELQLIDITEDGFVSLLYDNGDTKDDLSLPKDTEGNLDEVAKQIRNLFDNGKSVLVSVLSACGQEKIIAAKELSS	soluble
MGSDKIHHHHHHMWENFLFSVDRKETTMSMRLLARKMLFMRGASWQHPVIRLGLTALDPVDAIIRSATGLRSLPRYSTRVRSNGLSNQFGGGKFARQGRVILHMLQRHCALSPKSRVLEIGCGCGRTAVQLASFLEAEKYVGMDIEMVSLEACRDNPHLKRRGFKFDLIDIQNNEYNPKGRFRADEYRFSYLDGSMDCVFLISVFTHMLPEDVSNYVTEIGRMLDRGGMCLFSTFLIDHGRGGRGLNFAHDGNGFSYYDVRMPEIAVAYPQRFFEDSFGRAGLVLHEVKLGSWRDDGRGSYPEFGQDVLVFKKAA	not soluble
MGSDKIHHHHHHMLTASVNEAEPCAEPQRPVIRLHPVTADDAPKLPATRCSTCAIRNVCMPAGLTPIEFARLDAMVCTTRHVKRGDALFRTHDTFQSIYAVRTGSFKTVVMHRDGREQVTGFQIVGETLGLDGVCGGRHNSDAIALEDSTVCIIPFAQLEAVCREVKPMQHHVHQLMSGEIVRESSLMMLLGTMTAEQRVAAFLLNISERFQKRGYSASEFNLRMTREEIGCYLGMKLETVSRMLSKFQRDRLIAPRGKQIRITDPQGLARV	not soluble
MSLTPTVMVVDESRITFLAVKNALEKDGFNVIWAKNEQEAFTFLRREKIDLVFVDVFEGEESLNLIRRIREEFPDTKVAVLSAYVDKDLIINSVKAGAVDYILKPFRLDYLLERVKKIISSTPRVTVSLRKNIEDLEITLKFEDIVRKEIKRSNRTGSRFCVMYVKFEDIMRDYETIKKFFRETDYVLPISASEYLFVLTLTGKHGIEAVTRRMKEKLSERFSYTYVCYPDDGKTYEEIILTLKDRMAKPRGEGHHHHHH	soluble
MESIEQQLTELRTTLRHHEYLYHVMDAPEIPDAEYDRLMRELRELETKHPELITPDSPTQRVGAAPLAAFSQIRHEVPMLSLDNVFDEESFLAFNKRVQDRLKNNEKVTWCCELKLDGLAVSILYENGVLVSAATRGDGTTGEDITSNVRTIRAIPLKLHGENIPARLEVRGEVFLPQAGFEKINEDARRTGGKVFANPRNAAAGSLRQLDPRITAKRPLTFFCYGVGVLEGGELPDTHLGRLLQFKKWGLPVSDRVTLCESAEEVLAFYHKVEEDRPTLGFDIDGVVIKVNSLAQQEQLGFVARAPRWAVAFKFPAQEQMTFVRDVEFQVGRTGAITPVARLEPVHVAGVLVSNATLHNADEIERLGLRIGDKVVIRRAGDVIPQVVNVVLSERPEDTREVVFPTHCPVCGSDVERVEGEAVARCTGGLICGAQRKESLKHFVSRRAMDVDGMGDKIIDQLVEKEYVHTPADLFKLTAGKLTGLERMGPKSAQNVVNALEKAKETTFARFLYALGIREVGEATAAGLAAYFGTLEALEAASIEELQKVPDVGIVVASHVHNFFAEESNRNVISELLAEGVHWPAPIVINAEEIDSPFAGKTVVLTGSLSQMSRDDAKARLVELGAKVAGSVSKKTDLVIAGEAAGSKLAKAQELGIEVIDEAEMLRLLGS	soluble
